# Laboratory results from the DeepSol protein solubility set.
# Experiment: soluble on expression in E. coli; label from the status in PepcDB or PDB records
row,Sequence,soluble on expression in E. coli
1,MSPSSATPARCSIARTLELLGDKWTLLIVRDAFWGHSRFSEFTRSLGVASDVLTARLAMLVDEGILERRAYRQEGSRERLEYVLTEKGKQLHVVIGALGQFGRDHLPRPGSTSPEYSDETTGEAVSLAFVTDDGRRVSASTLHVQQGTPAPAADPQG,not soluble
2,MTALGLIETKGLLAAVEAADAMLKAADVRLLEKNLASGGLVTITVAGEVSAVRAAVDAGVSAIRRVNAASLVSEHVIARPDEGVSRVVSLVPPAAVPPAAPPVQAPAGDSGAQQPVQEAAEAEPQTGSTVEEQTPAAVEASPAPAAAAPRTETVRYEISQLKKMNVSRLRQVARGVSGLSIPREAVKSANKKDLIDAIINSYRQIEE,not soluble
3,MEINTIIGNNLKKIRQEKKLTLDELAGITGVSKGMLSQIEKGTTNPTINTIWKISNGLNVPYTYLLEDDYVKENPVVKKTETVTQHSEDHSYRVFNYYSDNQERNFELFQFELDPGKKYQAVGHSKRSTEYVMVIQGALALEVGGQRYLLPKDAAMYFDANQVHTYINDGTEKVQAVVINYYT,not soluble
4,MAHHHHHHMDSEPFAFDGEGSRARQSEYVDMTLVHLGMKLRDMGIAFEDMELATVPTQFAEQLLSYIEAFEERESAIRAATTEHRAQLEQEQKRLESLQEATEKARGEVAILSERISSALSAFRGEEKLEAQHRRERQRDVQDIVRQIEKKELELRRETMERDRLSKMLKKVKK,soluble
5,MEESINQNPEAMEALISNLFGNISSLKSAYIELQSAHTPYDPEKIQAADKVVISELKNLSEMKHFYRENNPKPVCVSPQDSRLAAEIQEQQSLLKTYEVMVKKFQSEIQNKDSEITQMLQKIEEANQKRLKLEKNLKLRGMSTNQGSGGDGNLQFPDLTTELFVSTYEAAAKVVHDFSKPLINMMKAAGWDLDTAANSIEPDVVYAKRPHKEYAFESYICQRMFSGFQQKNFSVNSESATVMADDDTDTFFRQFLALKDMDPLDALDQRDYVTGGGHPRTAFYQAFLKLAKSIWILHKLAYSFDPAAKIFQVKKGSEFSDSYMESVVKNIH,soluble
6,MVKLDDKNKKFKGKKKVKNVLEKKAKGLKLNKVDRKRIVKIEEKAALKSKVDKAVKDELERLKKSSSTSVFDNDGTRDSLCSESSFGSQPAPKKKSKKVLFSGELEHVKVFDKRVQDLQIKPSEASPGRGILRSPLDKKVKKLAKVKTVKVAQEEEEEHSAPPKKKVKVNAEKAVASEPADDENLESVDEQAGGDESHIDIPTLKRKRVAIQVTKSVKEQLLNMPRKERKAFLKELKLKRKPEGARAQKCKELWEKIRMGKTPKAEKDTAVHELYGLVKGHAAKLIYAHDTSRVIECLVATEREGIINNLFNELTPEIVRMSKNVYSKFFVKKMLKNGTKEQRDIIINAFRGHAPTLLRIKHAAEVLEYAYNDFANAHQRYNIITEFYGKEFILFREDNIRSLTEILAEKPEKKVVILKHLDEVIGAVNEKETLRLSILHKLMLDFFDNCDEEKKINLLDSLKDKIPEFIHTPDGAKLAIKLIWFAPVKERKLIVKNFKDLSVKAAMEHYGHRVLLALFDTVDDTVLLNKVIVSELANEMKKLIEDDWGEKVIHYLVHPRDGRGIDKREITFLAEGDSNPHSKKTQKDRYGQLYAGITENLYPYLAANFEELVFEANKSKFVAACLETTSSFDLFDRQVPAEARKSCNQAIVELAKKDFVPMDQEGFHIIEHQSGNFILMAVMRCDAALQEDERLSVALAEGLTSKQLGSWVTCNRGCHVLLKMLQVGGPKVIEKLKASISRKHLDGYNSKGANLLKAQLDGNVKK,soluble
7,MHHHHHHSSGVDLGTENLYFQSMSFAVGMFKGQLTTDQVFPYPSVLNEEQTQFLKELVEPVSRFFEEVNDPAKNDALEMVEETTWQGLKELGAFGLQVPSELGGVGLCNTQYARLVEIVGMHDLGVGITLGAHQSIGFKGILLFGTKAQKEKYLPKLASGETVAAFCLTEPSSGSDAASIRTSAVPSPCGKYYTLNGSKLWISNGGLADIFTVFAKTPVTDPATGAVKEKITAFVVERGFGGITHGPPEKKMGIKASNTAEVFFDGVRVPSENVLGEVGSGFKVAMHILNNGRFGMAAALAGTMRGIIAKAVDHATNRTQFGEKIHNFGLIQEKLARMVMLQYVTESMAYMVSANMDQGATDFQIEAAISKIFGSEAAWKVTDECIQIMGGMGFMKEPGVERVLRDLRIFRIFEGTNDILRLFVALQGCMDKGKELSGLGSALKNPFGNAGLLLGEAGKQLRRRAGLGSGLSLSGLVHPELSRSGELAVRALEQFATVVEAKLIKHKKGIVNEQFLLQRLADGAIDLYAMVVVLSRASRSLSEGHPTAQHEKMLCDTWCIEAAARIREGMAALQSDPWQQELYRNFKSISKALVERGGVVTSNPLGF,soluble
8,MSLNVGYLCTYTPKELIDAAGFTPIRIFAGDMQISLATAHIQSYACSQARGSLERALRGELDVQAVVFTRCCDTLMRLADIWERNTDMRVYNIEFPTRVEERSKDYYFNELKDFVKVLEEWGGGVTLESLRESLKLYHELEEKLKRLFSLKPDYEAAKRVQEMNVREAIKFVDERLRKAESEGGKPRVLITGSVCPFVEVYTLFEEAGFALKDDICTGTRFFTFNTPPREIGSVDEGLRFLVDKYFEKAPCPTKHFPNDDRFKYILEMAKDCDGVVFLLLKFCEPHFYDYPQLKERLEEMGKKVLLLELEFPIASIEQLRTRIEAFYEVIAEGGSHHHHHH,soluble
9,MLSFRNWWAREDSNPRPPGYEPGALPTELRAHTAIRLYSNKTPLSRSVISMKKDPIKEMLVKYPRILVIKAALKILKDGNKIDRERIEKTIVKIMTKKEGLEHHHHHH,soluble
10,CPEIEAQGNECLKEYGGDVGFGFCAPRIFPTICYTRCRENKGAKGGRCRWGQGSNVKCLCDFCGDTPQ,soluble
11,MGSDKIHHHHHHMSTEPLASRMRPKNIDEIISQQHLVGPKGIIRRMVDTKKLTSMIFYGPPGIGKTSIAKAISGSTQYKFRQLNAVTNTKKDMQLVVEEAKMSGQVILLLDEIHRLDKAKQDFLLPHLENGKIVLIGATTSNPYHAINPAIRSRAQIFELYPLNDEDVRQALTRAIEDDENGLKTYQPKIDEDAMTYFSTQSQGDVRSALNALELAVLSADNDKDGYRHVTLQDAKDCLQKGAFVSDKDGDMHYDVMSAFQKSIRGSDVNAALHYLARLIEAGDLPTIVRRLLVISYEDIGLASPNAGQRTLAAIESAERLGLPEARIPLSQAVIELCLSPKSNSAMSAIDSALSDIRNGHVGQIPNHLKDGHYQGAKDLGRSIGYKYPHQYVNGYVSQQYLPDKLKNKIYYEPKTTSKSEQQLKEIYNNLLKQRP,not soluble
12,MNKPLTPSTYIRNLNVGILRKLSDFIDPQEGWKKLAVAIKKPSGDDRYNQFHIRRFEALLQTGKSPTCELLFDWGTTNCTVGDLVDLLVQIELFAPATLLLPDAVPQTVKSLPP,soluble
13,MSLETILLNINISADKTSPKTLRKQLNKVLTSLDVNIQTSRKVELVTSEIVTNIVTHNNDNHTNITLKFGKCKNGYWLDIYDNGAEFDPLSGDIPELNDEFLLFESSRGLYLIRSQCDFIEYEYLNKIKNNRIHCVWYDENINAGPTILIIDDSEIELAIVSNLLSDQFSVLQASNGLDAISILDSHSIDIIISDLHMPTINGVDLYVYLQKHLDKIIPFIFLTSDTNEMTGLREDAYRIGADDVLTKPISQQMLVNAIERALKRNNEGHHHHHH,soluble
14,MSQIMYNYPAMLGHAGDMAGYAGTLQSLGAEIAVEQAALQSAWQGDTGITYQAWQAQWNQAMEDLVRAYHAMSSTHEANTMAMMARDTAEAAKWGG,not soluble
15,MGSDKIHHHHHHMSEALELLGQDIVARAPGVLGHSVAFGELTIVARAASVIDTLTFLRDDAACRFHQLIDLTGVDYPERAARFDVVYHLLSLVKNHRIRLKVSTDEDTPVPSVTPVFPVADWFEREAFDMYGIFFDGHPDLRRILTDYGFHGHPLRKDFPMTGYVEVRYDDELKRVVYEPVKITEFRAFDFLSPWEGAKYALPGDEKAQ,not soluble
16,MTATEPTEKILPSPDYVQSLARGLAVIRCFDHRNQRRTLSDVARATDLTRATARRFLLTLVELGYVATDGSAFWLTPRVLELGYSYLSSLSLPEVAQPHLEKLSHKVHESSSVSILDGADIVYVARVPVSRIMTVGITIGTRLPAYATSMGRVLLAGLPDDELDAYLEKLDIQRLTERTITARDELKAAILAVRADGICVLDQELEAGLRSMAAPIRGASGLTVAAVNISTPAARYSLEDLHSDLIPSLRVTATDIEQDLATVNR,soluble
17,MGSDKIHHHHHHMKLDLVRFFQACNPSKTLVVSKPEDRQYYIDFSKVRGAKIIEELGRTITRLSPEQPTCQLFTGHIGCGKSTELLRLKAELEQQGFHVVYFESSQSLDMADIDVTDILLAVAREVSQSLEAIKINLKPGYFKNLFTEISEFLQTPLDIGVEAELSVGIAKITAKTKDSPKLRGQLRQYLEPRTNGILESINKELLKPAREKLKQEGKKGLVVIIDNLDRVDNSLKPSGYYQPEYLFVERGEQLNQLNCHVVYTIPLVLIFSNALGRLINRFGIDPKVLPMVPVQVQDGSQFLQGITLLQQMVMARAFPGVSWEQSRHLITEVFDSLDTLERLCRVSGGHLRNLLMLLFRCLQQEDPPLSRECVDRVIKQRRNELTLAITPDEWELLHEVAQEKNLRGHERYDLLLRSMFVFEYRDEDGSWFDINPILAEAKEFRL,not soluble
18,MHLKNNQTLANGATVTIYPTTTEPTNYVVYLHGGGMIYGTKSDLPEELKELFTSNGYTVLALDYLLAPNTKIDHILRTLTETFQLLNEEIIQNQSFGLCGRSAGGYLMLQLTKQLQTLNLTPQFLVNFYGYTDLEFIKEPRKLLKQAISAKEIAAIDQTKPVWDDPFLSRYLLYHYSIQQALLPHFYGLPENGDWSAYALSDETLKTFPPCFSTASSSDEEVPFRYSKKIGRTIPESTFKAVYYLEHDFLKQTKDPSVITLFEQLDSWLKER,soluble
19,MSNTERTFIAIKPDGVHRGLVGKIIARFEERGYKLVALKQMTASKAHLEVHYQDLKDKPFFPSLIEYMSSGPVVAMVWQGLDVVKQGRSMLGATNPLASAPGTIRGDFCIQTGRNICHGSDAVDSANREIAHWFKQEEINDYASPFINSWVYE,not soluble
20,TSKINWNISVNATTYKNKILTLPEEKRESGIWNGIFKMVEGGSYYDYYIKEWAGVDPEDGKAMWYKDVTDKNGNTTKETTKTYSEATDYKAGCALPDLYGGISTSLNAYGFDFSIALTYQLGGQGYDYTYATLMNSAQGAGTNYHNDILNAWTPENKYTDVPKLNAKESNNNSTSTRFLTSTSYLSLQNISVGYTLPKNWIAKLGCESLRVYFVADNVALLSARKGYDPRTNWNGESNYNYSALRSISGGITMKF,not soluble
21,MGSDKIHHHHHHMSLRDKIEELKKIEKEIEQGGGPEKVEKQHRAGKLTAWERLELLLDPGTFVEIDKFVEHRNTYFGLDKVKLPRDGVITGVGEINGRKVAVFSQDFTVMGGSLGEMHAKKIVKLLDLALKMGIPVIGINDSGGARIQEGVDALAGYGEIFLRNTLASGVVPQITVIAGPCAGGAVYSPALTDFIVMVDQTARMFITGPNVIKAVTGEEISQEDLGGAMVHNQKSGNAHFLADNDEKAMSLVRTLLSYLPSNNAEEPPVEDPDTSLETPEDILDILPDNPNKGYDVRDVIKRVVDHGEFFEVQPYFAKNIVIGFARIQGKTVGIVANQPSVLAGVLDIDSSDKAARFIRFLDAFNIPILTFVDTPGYLPGVAQEHGGIIRHGAKLLYAYSEATVPKITVILRKAYGGAYIAMGSKHLGADMVLAWPSAEIAVMGPEGAANIIFKREIEASSNPEETRRKLIEEYKQQFANPYIAASRGYVDMVIDPRETRKYIMRALEVCETKVEYRPKKKHGNIPL,soluble
